To fix the notation:
B1: L-fucose dehydrogenase (Homo sapiens), Q9BPX1 (parent)
chain: MATGTRYAGKVVVVTGGGRGIGAGIVRAFVNSGARVVICDKDESGGRALEQELPGAVFILCDVTQEDDVKTLVSETIRRFGRLDCVVNNAGHHPPPQRPEETSAQGFRQLLELNLLGTYTLTKLALPYLRKSQGNVINISSLVGAIGQAQAVPYVATKGAVTAMTKALALDESPYGVRVNCISPGNIWTPLWEELAALMPDPRATIREGMLAQPLGRMGQPAEVGAAAVFLASEANFCTGIELLVTGGAELGYGCKASRSTPVDAPDIPS
B2: E3 ubiquitin-protein ligase Midline-1 (Homo sapiens), O15344 (parent)
chain: METLESELTCPICLELFEDPLLLPCAHSLCFNCAHRILVSHCATNESVESITAFQCPTCRHVITLSQRGLDGLKRNVTLQNIIDRFQKASVSGPNSPSETRRERAFDANTMTSAEKVLCQFCDQDPAQDAVKTCVTCEVSYCDECLKATHPNKKPFTGHRLIEPIPDSHIRGLMCLEHEDEKVNMYCVTDDQLICALCKLVGRHRDHQVAALSERYDKLKQNLESNLTNLIKRNTELETLLAKLIQTCQHVEVNASRQEAKLTEECDLLIEIIQQRRQIIGTKIKEGKVMRLRKLAQQIANCKQCIERSASLISQAEHSLKENDHARFLQTAKNITERVSMATASSQVLIPEINLNDTFDTFALDFSREKKLLECLDYLTAPNPPTIREELCTASYDTITVHWTSDDEFSVVSYELQYTIFTGQANVVSLCNSADSWMIVPNIKQNHYTVHGLQSGTKYIFMVKAINQAGSRSSEPGKLKTNSQPFKLDPKSAHRKLKVSHDNLTVERDESSSKKSHTPERFTSQGSYGVAGNVFIDSGRHYWEVVISGSTWYAIGLAYKSAPKHEWIGKNSASWALCRCNNNWVVRHNSKEIPIEPAPHLRRVGILLDYDNGSIAFYDALNSIHLYTFDVAFAQPVCPTFTVWNKCLTIITGLPIPDHLDCTEQLP
B3: G-patch domain and KOW motifs-containing protein (Homo sapiens), Q92917 (parent)
chain: MADSKEGVLPLTAASTAPISFGFTRTSARRRLADSGDGAGPSPEEKDFLKTVEGRELQSVKPQEAPKELVIPLIQNGHRRQPPARPPGPSTDTGALADGVVSQAVKELIAESKKSLEERENAGVDPTLAIPMIQKGCTPSGEGADSEPRAETVPEEANYEAVPVEAYGLAMLRGMGWKPGEGIGRTFNQVVKPRVNSLRPKGLGLGANLTEAQALTPTGPSRMPRPDEEQEKDKEDQPQGLVPGGAVVVLSGPHRGLYGKVEGLDPDNVRAMVRLAVGSRVVTVSEYYLRPVSQQEFDKNTLDLRQQNGTASSRKTLWNQELYIQQDNSERKRKHLPDRQDGPAAKSEKAAPRSQHWLHRDLRVRFVDNMYKGGQYYNTKMIIEDVLSPDTCVCRTDEGRVLEGLREDMLETLVPKAEGDRVMVVLGPQTGRVGHLLSRDRARSRALVQLPRENQVVELHYDAICQYMGPSDTDDD
B4: Ribosome-recycling factor, mitochondrial (Homo sapiens), Q96E11 (parent)
chain: MALGLKCFRMVHPTFRNYLAASIRPVSEVTLKTVHERQHGHRQYMAYSAVPVRHFATKKAKAKGKGQSQTRVNINAALVEDIINLEEVNEEMKSVIEALKDNFNKTLNIRTSPGSLDKIAVVTADGKLALNQISQISMKSPQLILVNMASFPECTAAAIKAIRESGMNLNPEVEGTLIRVPIPQVTREHREMLVKLAKQNTNKAKDSLRKVRTNSMNKLKKSKDTVSEDTIRLIEKQISQMADDTVAELDRHLAVKTKELLG
partner: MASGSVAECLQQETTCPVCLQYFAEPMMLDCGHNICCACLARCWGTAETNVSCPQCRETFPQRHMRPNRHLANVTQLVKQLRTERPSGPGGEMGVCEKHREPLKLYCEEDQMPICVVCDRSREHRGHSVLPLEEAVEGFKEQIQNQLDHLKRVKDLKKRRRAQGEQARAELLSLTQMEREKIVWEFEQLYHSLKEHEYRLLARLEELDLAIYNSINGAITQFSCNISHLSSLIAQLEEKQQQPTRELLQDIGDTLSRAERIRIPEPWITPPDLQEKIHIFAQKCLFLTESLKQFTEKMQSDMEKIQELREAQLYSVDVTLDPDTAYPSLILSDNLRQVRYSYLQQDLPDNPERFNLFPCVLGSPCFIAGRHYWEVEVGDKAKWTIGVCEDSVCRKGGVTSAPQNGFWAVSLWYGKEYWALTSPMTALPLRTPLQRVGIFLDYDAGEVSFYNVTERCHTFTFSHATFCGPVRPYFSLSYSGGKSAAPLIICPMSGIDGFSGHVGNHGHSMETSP
B5: Histone-lysine N-methyltransferase SMYD1 (Homo sapiens), Q8NB12 (parent)
chain: MTIGRMENVEVFTAEGKGRGLKATKEFWAADIIFAERAYSAVVFDSLVNFVCHTCFKRQEKLHRCGQCKFAHYCDRTCQKDAWLNHKNECSAIKRYGKVPNENIRLAARIMWRVEREGTGLTEGCLVSVDDLQNHVEHFGEEEQKDLRVDVDTFLQYWPPQSQQFSMQYISHIFGVINCNGFTLSDQRGLQAVGVGIFPNLGLVNHDCWPNCTVIFNNGNHEAVKSMFHTQMRIELRALGKISEGEELTVSYIDFLNVSEERKRQLKKQYYFDCTCEHCQKKLKDDLFLGVKDNPKPSQEVVKEMIQFSKDTLEKIDKARSEGLYHEVVKLCRECLEKQEPVFADTNIYMLRMLSIVSEVLSYLQAFEEASFYARRMVDGYMKLYHPNNAQLGMAVMRAGLTNWHAGNIEVGHGMICKAYAILLVTHGPSHPITKDLEAMRVQTEMELRMFRQNEFMYYKMREAALNNQPMQVMAEPSNEPSPALFHKKQ
partner: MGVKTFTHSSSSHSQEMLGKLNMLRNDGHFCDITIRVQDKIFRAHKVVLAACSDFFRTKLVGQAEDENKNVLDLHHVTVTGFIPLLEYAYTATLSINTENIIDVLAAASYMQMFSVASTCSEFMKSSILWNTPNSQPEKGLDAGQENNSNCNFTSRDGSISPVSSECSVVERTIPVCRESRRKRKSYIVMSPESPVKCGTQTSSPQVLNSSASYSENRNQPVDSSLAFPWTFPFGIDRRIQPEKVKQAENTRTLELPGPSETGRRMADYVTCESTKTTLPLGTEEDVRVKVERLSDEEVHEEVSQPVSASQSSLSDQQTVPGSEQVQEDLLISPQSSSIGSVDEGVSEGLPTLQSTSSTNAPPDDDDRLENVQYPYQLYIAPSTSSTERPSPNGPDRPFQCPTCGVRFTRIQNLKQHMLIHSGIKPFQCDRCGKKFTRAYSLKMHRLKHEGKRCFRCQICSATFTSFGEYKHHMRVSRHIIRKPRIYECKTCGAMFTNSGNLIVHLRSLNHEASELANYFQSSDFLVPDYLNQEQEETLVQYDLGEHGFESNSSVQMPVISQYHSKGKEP

One assay covers variants of B1. The settings on record: with psa1_human PSMA1, P25786.
Chain of psa1_human PSMA1, P25786 (P25786 whole entry): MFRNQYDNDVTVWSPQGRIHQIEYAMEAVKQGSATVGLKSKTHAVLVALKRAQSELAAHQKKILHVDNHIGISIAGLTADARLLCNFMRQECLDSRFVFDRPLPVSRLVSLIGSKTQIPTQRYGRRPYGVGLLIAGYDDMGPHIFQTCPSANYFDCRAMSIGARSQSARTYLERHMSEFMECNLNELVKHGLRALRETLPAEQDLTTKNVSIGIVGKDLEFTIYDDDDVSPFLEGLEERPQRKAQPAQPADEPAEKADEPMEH
Turning to N31D, the “effect of a mutation on the interaction” value was “with no effect”.
On the same count and under the same terms, then R130W, with “disrupting interaction strength”.
On to G16W, for which the “effect of a mutation on the interaction” value is given as “with no effect”.
On the same count and under the same terms, then A56T, with “with no effect”.

A further assay covers variants of B1. The settings on record: with sr1ip_human SREK1IP1, Q8N9Q2.
Chain of sr1ip_human SREK1IP1, Q8N9Q2 (Q8N9Q2 whole entry): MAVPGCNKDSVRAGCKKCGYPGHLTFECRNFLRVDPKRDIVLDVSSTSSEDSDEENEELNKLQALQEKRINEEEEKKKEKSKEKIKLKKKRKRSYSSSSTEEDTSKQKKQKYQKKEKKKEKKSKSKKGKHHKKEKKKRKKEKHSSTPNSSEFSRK
Regarding N31D, the “effect of a mutation on the interaction” value was “with no effect”.
Still for that read-out and setting: with R130W the entry was “disrupting interaction strength”.
On the same count and under the same terms, then A56T, with “with no effect”.

The next assay covers variants of B1. The following applies: with ntaq1_human NTAQ1, Q96HA8.
As to N31D, the “effect of a mutation on the interaction” value is listed as “with no effect”.
The same measure, in the same setting: with R130W the entry was “disrupting interaction strength”; with A56T, “with no effect”.

The next assay covers variants of B1. The following applies: with phf1_human PHF1, O43189.
Chain of phf1_human PHF1, O43189 (O43189 whole entry): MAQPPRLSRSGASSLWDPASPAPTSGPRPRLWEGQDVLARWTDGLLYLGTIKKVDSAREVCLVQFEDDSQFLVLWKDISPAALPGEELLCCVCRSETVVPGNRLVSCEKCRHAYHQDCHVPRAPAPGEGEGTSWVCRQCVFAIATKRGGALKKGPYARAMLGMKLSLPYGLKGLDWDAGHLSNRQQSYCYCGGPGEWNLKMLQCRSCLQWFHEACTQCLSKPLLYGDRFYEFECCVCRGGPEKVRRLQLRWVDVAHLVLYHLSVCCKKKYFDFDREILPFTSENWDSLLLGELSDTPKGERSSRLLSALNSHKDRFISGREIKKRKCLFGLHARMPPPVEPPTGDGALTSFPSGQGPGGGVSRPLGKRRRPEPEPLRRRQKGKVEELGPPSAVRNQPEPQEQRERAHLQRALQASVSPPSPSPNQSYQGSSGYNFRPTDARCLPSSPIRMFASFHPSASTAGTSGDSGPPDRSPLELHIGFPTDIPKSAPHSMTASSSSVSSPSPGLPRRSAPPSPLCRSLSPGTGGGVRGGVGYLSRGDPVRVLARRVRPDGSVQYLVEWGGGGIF
For N31D, the “effect of a mutation on the interaction” value was “with no effect”.
Same read-out and setting: then G16W, with “with no effect”.

Another assay covers variants of B1. The settings on record: with cah8_human CA8, P35219.
Chain of cah8_human CA8, P35219 (P35219 whole entry): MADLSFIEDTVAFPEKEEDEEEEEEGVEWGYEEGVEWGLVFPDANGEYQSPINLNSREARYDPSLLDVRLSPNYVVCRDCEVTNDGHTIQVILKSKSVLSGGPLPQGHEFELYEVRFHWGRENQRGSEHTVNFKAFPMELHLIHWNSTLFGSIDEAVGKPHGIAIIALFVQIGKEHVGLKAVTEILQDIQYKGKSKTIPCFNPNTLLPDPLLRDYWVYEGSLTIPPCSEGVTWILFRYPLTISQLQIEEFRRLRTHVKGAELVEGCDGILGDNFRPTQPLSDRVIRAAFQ
With N31D, the “effect of a mutation on the interaction” value is on record as “with no effect”.
Turning to G16W, the “effect of a mutation on the interaction” value was “with no effect”.

A further assay covers variants of B2. The settings on record: with meox1_human MEOX1, P50221.
Chain of meox1_human MEOX1, P50221 (P50221 whole entry): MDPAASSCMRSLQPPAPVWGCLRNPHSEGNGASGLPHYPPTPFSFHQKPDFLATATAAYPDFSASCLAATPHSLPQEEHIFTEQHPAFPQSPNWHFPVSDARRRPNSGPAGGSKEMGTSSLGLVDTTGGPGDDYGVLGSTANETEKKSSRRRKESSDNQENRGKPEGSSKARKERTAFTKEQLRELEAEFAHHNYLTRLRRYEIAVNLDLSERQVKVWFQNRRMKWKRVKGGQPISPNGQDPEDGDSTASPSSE
As for D84N, the “effect of a mutation on the interaction” value is on record as “with no effect”.

In another assay the parent is B2. The settings on record: with echp_human EHHADH.
Turning to D84N, the “effect of a mutation on the interaction” value was “with no effect”.

Variants of B2 are the subject of another assay. The following applies: with ub2d3_human UBE2D3, P61077.
Chain of ub2d3_human UBE2D3, P61077 (P61077 whole entry): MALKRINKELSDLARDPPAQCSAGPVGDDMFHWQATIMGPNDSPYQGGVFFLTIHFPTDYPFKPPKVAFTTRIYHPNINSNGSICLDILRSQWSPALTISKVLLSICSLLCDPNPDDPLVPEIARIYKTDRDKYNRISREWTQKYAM
As to D84N, the “effect of a mutation on the interaction” value is recorded as “with no effect”.

Another assay covers variants of B2. The settings on record: with ub2e2_human UBE2E2, Q96LR5.
Chain of ub2e2_human UBE2E2, Q96LR5 (Q96LR5 whole entry): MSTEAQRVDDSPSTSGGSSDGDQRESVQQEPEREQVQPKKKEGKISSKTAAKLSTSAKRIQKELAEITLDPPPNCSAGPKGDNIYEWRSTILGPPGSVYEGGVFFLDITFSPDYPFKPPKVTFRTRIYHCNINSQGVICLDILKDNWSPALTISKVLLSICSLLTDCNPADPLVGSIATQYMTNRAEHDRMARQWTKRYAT
Consider D84N, for which the “effect of a mutation on the interaction” value is reported as “with no effect”.

Another assay covers variants of B3. The settings on record: with tri23_human TRIM23, P36406.
Chain of tri23_human TRIM23, P36406 (P36406 whole entry): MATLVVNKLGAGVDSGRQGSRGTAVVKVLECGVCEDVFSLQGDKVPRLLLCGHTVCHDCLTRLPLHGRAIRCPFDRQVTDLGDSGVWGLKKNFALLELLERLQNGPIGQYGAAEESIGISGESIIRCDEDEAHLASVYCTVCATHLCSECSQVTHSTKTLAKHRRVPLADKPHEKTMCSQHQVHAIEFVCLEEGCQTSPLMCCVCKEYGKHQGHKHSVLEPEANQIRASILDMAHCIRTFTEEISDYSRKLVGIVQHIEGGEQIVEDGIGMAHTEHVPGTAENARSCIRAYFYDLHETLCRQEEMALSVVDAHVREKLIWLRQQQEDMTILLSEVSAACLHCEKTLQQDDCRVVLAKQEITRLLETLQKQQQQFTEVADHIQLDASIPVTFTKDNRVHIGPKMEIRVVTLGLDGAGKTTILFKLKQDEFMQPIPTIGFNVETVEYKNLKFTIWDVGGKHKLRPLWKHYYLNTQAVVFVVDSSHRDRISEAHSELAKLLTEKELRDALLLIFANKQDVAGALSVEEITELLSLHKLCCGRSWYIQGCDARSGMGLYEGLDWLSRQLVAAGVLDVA
For A129T, the “effect of a mutation on the interaction” value is reported as “with no effect”.
On the same count and under the same terms, then V393A, with “with no effect”.

In another assay the parent is B3. The settings on record: with traf2_human TRAF2, Q12933.
Chain of traf2_human TRAF2, Q12933 (Q12933 whole entry): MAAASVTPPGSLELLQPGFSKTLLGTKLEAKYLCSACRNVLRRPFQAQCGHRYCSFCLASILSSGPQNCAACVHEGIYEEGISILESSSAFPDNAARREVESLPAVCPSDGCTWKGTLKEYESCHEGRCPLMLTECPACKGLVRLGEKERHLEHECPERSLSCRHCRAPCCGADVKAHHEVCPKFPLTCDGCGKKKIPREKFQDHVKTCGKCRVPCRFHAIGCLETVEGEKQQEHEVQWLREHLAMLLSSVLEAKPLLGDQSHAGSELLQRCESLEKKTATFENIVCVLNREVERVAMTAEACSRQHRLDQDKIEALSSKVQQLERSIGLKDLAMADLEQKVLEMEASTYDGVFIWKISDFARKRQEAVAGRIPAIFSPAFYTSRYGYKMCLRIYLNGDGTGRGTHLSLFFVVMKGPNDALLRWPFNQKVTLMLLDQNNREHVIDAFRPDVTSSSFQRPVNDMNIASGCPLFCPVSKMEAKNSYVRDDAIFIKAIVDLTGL
With A129T, the “effect of a mutation on the interaction” value is recorded as “with no effect”.
Still for that read-out and setting: then V393A, with “with no effect”.

The next assay covers variants of B4. The settings on record: with tri27_human TRIM27, P14373.
Regarding M216V, the “effect of a mutation on the interaction” value is “with no effect”.

In a further assay the parent is B5. The following applies: with zbt44_human ZBTB44, Q8NCP5.
Consider R333Q, for which the “effect of a mutation on the interaction” value is “with no effect”.

Source of the values: IntAct's records for PubMed 31515488.
